The source of these data is PMC6389858.

Series [1] deals with T1, OxyR (Escherichia coli K12 BW25113?) (UniProt P0ACQ4).
T1 sequence: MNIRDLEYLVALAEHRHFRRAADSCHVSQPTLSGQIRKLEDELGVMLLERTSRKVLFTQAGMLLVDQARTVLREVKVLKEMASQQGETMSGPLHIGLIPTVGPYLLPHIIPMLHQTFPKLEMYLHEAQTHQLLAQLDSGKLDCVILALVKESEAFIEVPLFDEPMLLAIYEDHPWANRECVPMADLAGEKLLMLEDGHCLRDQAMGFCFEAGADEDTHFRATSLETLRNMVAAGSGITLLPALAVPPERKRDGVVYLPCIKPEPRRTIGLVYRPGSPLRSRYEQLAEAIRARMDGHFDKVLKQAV
Kind of series: competition. As to conditions: EMSA: 10 mM HEPES pH 7.3, 20 mM KCl, 1 mM MgCl2, 5% glycerol, poly dI-dC, NP-40, 25 C, 2 h; 6% DNA retardation gel.

The target of series [2] is T1, OxyR (Escherichia coli K12 BW25113?). Kind of series: EMSA. Conditions: EMSA: 10 mM HEPES pH 7.3, 20 mM KCl, 1 mM MgCl2, 5% glycerol, poly dI-dC, NP-40, 25 C, 2 h; 6% DNA retardation gel.

For “ACTGGCCTGATAAGCCTGTTTACCTCGGGGCGCAGGCGCATCTGCAAAACTTCTACCAGAGTTTCGGTTTTATCCCTGTGACGGAGGTCTATGAAGAAGATGGTATCCCACACATTGGGATGGCACGCGAGGTAATTCAGGCGTAATCAACAACCCTTGTCTATAGTTAGTGACAGGTTTTACGCAAATGGAGAACGAGA (double strand) [PelaB-S (elaB promoter probe with OxyR binding site 2)]”, the binding result in series [1] and in series [2] was “binds” each time.
